Assay results reported in article PMC7502549 (Journal of molecular biology, 2020).

Target: the molecule itself
Assay: AUC

B1: Neurotrimin (NTM) extracellular domain, a.a. 36-311, with C-terminal linker and hexahistidine tag (domain or fragment, human, UniProt Q9P121 36-311, looked up)
chain: ATFPKAMDNVTVRQGESATLRCTIDNRVTRVAWLNRSTILYAGNDKWCLDPRVVLLSNTQTQYSIEIQNVDVYDEGPYTCSVQTDNHPKTSRVHLIVQVSPKIVEISSDISINEGNNISLTCIATGRPEPTVTWRHISPKAVGFVSEDEYLEIQGITREQSGDYECSASNDVAAPVVRRVKVTVNYPPYISEAKGTGVPVGQKGTLQCEASAVPSAEFQWYKDDKRLIEGKKGVKVENRPFLSKLIFFNVSEHDYGNYTCVASNKLGHTNASIMLF
modifications: N-linked glycosylation (extensive)
Question: For B1, which “stoichiometry N” value is on record?
Answer: 2
